Reference: US20210388079A1 (published 2021)
Each block holds one binder with its values, some of them ahead of it.

Legend:
[1] = target: T1, Serine protease inhibitor Kazal-type 2 (SPINK2); peptide SPINK2-001 peptide on HLA-A*02:01 (human); experiment: IFNγ release; T2 cells loaded with 10 µM to 10 pM peptide (FIG. 30); full-length, on cells
T1 peptide: ALSVLRLAL

[2] = target: T1, Serine protease inhibitor Kazal-type 2 …; experiment: IFNγ release; T2 cells loaded with 10 µM to 10 pM peptide (FIG. 28); full-length, on cells
[3] = target: T1, Serine protease inhibitor Kazal-type 2 …; experiment: IFNγ release; T2 cells loaded with 10 µM to 10 pM peptide (FIG. 27); full-length, on cells
[4] = target: T1, Serine protease inhibitor Kazal-type 2 …; experiment: IFNγ release; T2 cells loaded with 10 µM to 10 pM peptide (FIG. 23); full-length, on cells

B3: R44P3E7 (TCR, V domains shown)
Valpha: GEDVEQSLFLSVREGDSSVINCTYTDSSSTYLYWYKQEPGAGLQLLTYIFSNMDMKQDQRLTVLLNKKDKHLSLRIADTQTGDSAIYFCAEINNNARLMFGDGTQLVVKP
Vbeta: AAGVIQSPRHLIKEKRETATLKCYPIPRHDTVYWYQQGPGQDPQFLISFYEKMQSDKGSIPDRFSAQQFSDYHSELNMSSLELGDSALYFCASSPPDQNTQYFGPGTRLTVL
EC50 of peptide [3]: 0.86 nM

B4: R40P1C2 (TCR, V domains shown)
Valpha: AQTVTQSQPEMSVQEAETVTLSCTYDTSESDYYLFWYKQPPSRQMILVIRQEAYKQQNATENRFSVNFQKAAKSFSLKISDSQLGDAAMYFCAYLNYQLIWGAGTKLIIKP
Vbeta: EPEVTQTPSHQVTQMGQEVILRCVPISNHLYFYWYRQILGQKVEFLVSFYNNEISEKSEIFDDQFSVERPDGSNFTLKIRSTKLEDSAMYFCASSEMTAVGQYFGPGTRLTVT
EC50 of peptide [4]: 1.94 nM

Results, then the binder that gave them:

EC50 of peptide [1]: 0.86 nM
B1: R59P2A7 (TCR, V domains shown)
Valpha: QKEVEQNSGPLSVPEGAIASLNCTYSDRGSQSFFWYRQYSGKSPELIMSIYSNGDKEDGRFTAQLNKASQYVSLLIRDSQPSDSATYLCAVQPHDMRFGAGTRLTVKP
Vbeta: SQTIHQWPATLVQPVGSPLSLECTVEGTSNPNLYWYRQAAGRGLQLLFYSVGIGQISSEVPQNLSASRPQDRQFILSSKKLLLSDSGFYLCAWSGLVAEQFFGPGTRLTVL

EC50 of peptide [2]: > 83.2 nM
B2: R49P2B7 (TCR, V domains shown)
Valpha: AQSVTQLGSHVSVSEGALVLLRCNYSSSVPPYLFWYVQYPNQGLQLLLKYTTGATLVKGINGFEAEFKKSETSFHLTKPSAHMSDAAEYFCAVRIFGNEKLTFGTGTRLTIIP
Vbeta: DVKVTQSSRYLVKRTGEKVFLECVQDMDHENMFWYRQDPGLGLRLIYFSYDVKMKEKGDIPEGYSVSREKKERFSLILESASTNQTSMYLCASSLMGELTGELFFGEGSRLTVL
